IntAct's records for PubMed 17213653

B1: Protein RCR1 (Saccharomyces cerevisiae), P38212 (parent)
chain: MGLISYENEAINEVKKADNHHVSKFVTSYYGPSSSSWQSGIWILFVLFVAAVILIILFTFVANRRRRRMGRAPIRGTAWLTPPSYRQSQQQYTGTVQQRTDDYVPEYTETANEHDLGYYDQRGEFHPNDKAAYVAPPPLVQECSSESVNSLERPPAAVVHQANSLDTDYGLTRPSNGRVPAVSDTVEQLERLPGGTTTQEINPPERAKVNARS
partner: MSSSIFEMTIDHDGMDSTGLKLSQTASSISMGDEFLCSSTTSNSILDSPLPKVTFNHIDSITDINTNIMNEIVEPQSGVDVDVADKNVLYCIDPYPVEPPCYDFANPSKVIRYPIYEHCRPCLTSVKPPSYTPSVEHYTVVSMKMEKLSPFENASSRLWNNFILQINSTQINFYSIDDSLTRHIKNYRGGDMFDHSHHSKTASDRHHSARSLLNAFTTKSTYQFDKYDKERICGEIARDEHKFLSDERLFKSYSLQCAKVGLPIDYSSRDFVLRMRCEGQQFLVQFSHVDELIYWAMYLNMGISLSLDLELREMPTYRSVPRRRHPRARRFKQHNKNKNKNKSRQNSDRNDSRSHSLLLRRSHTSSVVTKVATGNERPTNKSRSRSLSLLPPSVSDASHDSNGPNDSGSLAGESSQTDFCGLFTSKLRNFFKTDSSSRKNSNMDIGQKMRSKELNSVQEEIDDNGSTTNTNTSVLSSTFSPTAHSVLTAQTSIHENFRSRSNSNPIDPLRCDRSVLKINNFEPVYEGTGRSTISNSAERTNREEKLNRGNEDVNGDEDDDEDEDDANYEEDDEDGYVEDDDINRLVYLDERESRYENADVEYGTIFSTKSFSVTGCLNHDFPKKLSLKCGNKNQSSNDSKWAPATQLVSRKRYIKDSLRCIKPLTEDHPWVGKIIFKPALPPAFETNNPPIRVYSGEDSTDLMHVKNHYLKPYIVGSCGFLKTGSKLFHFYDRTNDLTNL
B2: Protein RCR1 (Saccharomyces cerevisiae), P38212 (parent)
chain: B1 chain

Variants of: B1
Settings: with yno4_yeast yno4, P53907

effect of a mutation on the interaction	Variant
disrupting interaction	MGLISYENEAINEVKKADNHHVSKFVTSYYGPSSSSWQSGIWILFVLFVAAVILIILFTFVANRRRRRMGRAPIRGTAWLTQASYRQSQQQYTGTVQQRTDDYVPEYTETANEHDLGYYDQRGEFHPNDKAAYVAPPPLVQECSSESVNSLERPPAAVVHQANSLDTDYGLTRPSNGRVPAVSDTVEQLERLPGGTTTQEINPPERAKVNARS [P82Q;P83A]

Variants of: B2
Settings: with rsp5_yeast RSP5, P39940
rsp5_yeast RSP5, P39940, sequence (P39940 whole entry): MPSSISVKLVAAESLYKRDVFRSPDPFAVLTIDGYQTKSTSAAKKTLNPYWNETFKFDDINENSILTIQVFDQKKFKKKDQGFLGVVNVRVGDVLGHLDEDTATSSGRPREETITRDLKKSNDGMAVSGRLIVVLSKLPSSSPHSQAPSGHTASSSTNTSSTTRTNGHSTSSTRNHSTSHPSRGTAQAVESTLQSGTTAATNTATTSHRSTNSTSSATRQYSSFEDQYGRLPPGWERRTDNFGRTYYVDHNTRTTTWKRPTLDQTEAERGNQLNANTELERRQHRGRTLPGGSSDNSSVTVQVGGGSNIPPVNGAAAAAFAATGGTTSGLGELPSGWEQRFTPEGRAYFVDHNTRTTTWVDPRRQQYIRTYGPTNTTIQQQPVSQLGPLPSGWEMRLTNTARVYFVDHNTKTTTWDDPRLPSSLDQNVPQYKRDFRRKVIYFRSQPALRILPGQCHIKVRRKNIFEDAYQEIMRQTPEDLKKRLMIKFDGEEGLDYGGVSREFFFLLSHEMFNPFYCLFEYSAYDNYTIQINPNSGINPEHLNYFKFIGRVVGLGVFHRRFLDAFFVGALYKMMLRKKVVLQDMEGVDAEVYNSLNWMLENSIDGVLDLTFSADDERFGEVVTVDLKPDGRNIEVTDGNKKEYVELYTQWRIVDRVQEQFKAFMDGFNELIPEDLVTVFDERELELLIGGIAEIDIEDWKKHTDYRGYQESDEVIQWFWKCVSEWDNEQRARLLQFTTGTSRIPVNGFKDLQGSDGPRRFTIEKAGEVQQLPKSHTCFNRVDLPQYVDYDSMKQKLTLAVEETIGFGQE

effect of a mutation on the interaction	Variant
disrupting interaction	MGLISYENEAINEVKKADNHHVSKFVTSYYGPSSSSWQSGIWILFVLFVAAVILIILFTFVANRRRRRMGRAPIRGTAWLTQASYRQSQQQYTGTVQQRTDDYVAEYTETANEHDLGYYDQRGEFHPNDKAAYVAPPPLVQECSSESVNSLERPPAAVVHQANSLDTDYGLTRPSNGRVPAVSDTVEQLERLPGGTTTQEINPPERAKVNARS [P82Q;P83A;P105A]
decreasing interaction	MGLISYENEAINEVKKADNHHVSKFVTSYYGPSSSSWQSGIWILFVLFVAAVILIILFTFVANRRRRRMGRAPIRGTAWLTPPSYRQSQQQYTGTVQQRTDDYVAEYTETANEHDLGYYDQRGEFHPNDKAAYVAPPPLVQECSSESVNSLERPPAAVVHQANSLDTDYGLTRPSNGRVPAVSDTVEQLERLPGGTTTQEINPPERAKVNARS [P105A]

Variants of: B2
Settings: with rsp5_yeast RSP5, P39940
Remark: another data set of the same source

effect of a mutation on the interaction	Variant
disrupting interaction	MGLISYENEAINEVKKADNHHVSKFVTSYYGPSSSSWQSGIWILFVLFVAAVILIILFTFVANRRRRRMGRAPIRGTAWLTPPSYRQSQQQYTGTVQQRTDDYVAEYTETANEHDLGYYDQRGEFHPNDKAAYVAPPPLVQECSSESVNSLERPPAAVVHQANSLDTDYGLTRPSNGRVPAVSDTVEQLERLPGGTTTQEINPPERAKVNARS [P105A]
decreasing interaction	MGLISYENEAINEVKKADNHHVSKFVTSYYGPSSSSWQSGIWILFVLFVAAVILIILFTFVANRRRRRMGRAPIRGTAWLTQASYRQSQQQYTGTVQQRTDDYVPEYTETANEHDLGYYDQRGEFHPNDKAAYVAPPPLVQECSSESVNSLERPPAAVVHQANSLDTDYGLTRPSNGRVPAVSDTVEQLERLPGGTTTQEINPPERAKVNARS [P82Q;P83A]
